From the supplement of paper PMC7125110 come the findings set out here.

The kcat is the number of substrate molecules converted per active site and unit of time at saturation. As usually defined, the KM is the concentration of substrate that gives half-maximal velocity.

± gives the standard error. For some of these results: Fewer inactive variants are shown than the library holds.

Sequences and labels used below:
B1: glmS ribozyme (parent)
chain: AUAAAAGCGCCAGAACUACAGAAAUGUAGUUGACGAGGAGGAGGUUUAUCGAAUUUUCGGCGGAUGCCUCCAAA

Conditions in all cases: with glucosamine-6-phosphate
Variants of B1 are the subject of data set [1]. The experiment in a line: kcat; higher = faster cleavage; RNA array. An outline of the steps:
(§1)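 Using a hybridised Cy3 probe at 37 °C, barcoded ribozyme variants transcribed in situ by E. coli RNA polymerase on sequenced MiSeq chips were monitored across tiles imaged over ~14 h. The flow contained glucosamine-6-phosphate from 40 μM to 10 mM in HEPES/KCl/Mg(OAc)2 buffer. Signals were normalised to baseline and to non-cleaving reference variants before per-tile medians were fit to one- or two-exponential decays to yield kobs. Weighted Michaelis–Menten fits across concentrations gave kcat and KM.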

Variants of B1 are the subject of data set [2]. The experiment in a line: KM; higher = weaker cofactor use; RNA array. An outline of the steps: as §1
Variants of B1 are the subject of data set [3]. The experiment in a line: self-cleavage kobs at 40 uM GlcN6P; higher = faster cleavage; RNA array. An outline of the steps:
as §1

In data set [4] the parent is B1. Description: self-cleavage kobs at 640 uM GlcN6P; higher = faster cleavage; RNA array. An outline of the steps: as §1
The variants in data set [5] derive from B1. The experiment in a line: self-cleavage kobs at 2500 uM GlcN6P; higher = faster cleavage; RNA array. The method, boiled down:
as §1

Data set [6] covers variants of B1. Description: self-cleavage kobs at 10000 uM GlcN6P; higher = faster cleavage; RNA array. The method, boiled down: as §1
In data set [7] the parent is B1. The experiment in a line: self-cleavage kobs at 160 uM GlcN6P; higher = faster cleavage; RNA array. An outline of the steps: as §1

Consider U46G A64G, for which, in the data set with glucosamine-6-phosphate [1], the catalytic constant (kcat) worked out at 0.0154 ± 0.0048 s⁻¹. Besides, the Michaelis-Menten constant (KM) with glucosamine-6-phosphate [2] worked out at 4.3 ± 1.9 mM. Besides, the “self-cleavage kobs at 40 uM GlcN6P” value with glucosamine-6-phosphate [3] was 0.000157 ± 2.3e-05 s⁻¹. Moreover, the “self-cleavage kobs at 640 uM GlcN6P” value in the data set with glucosamine-6-phosphate [4] was determined as 0.00216 ± 0.00079 s⁻¹. Also, the “self-cleavage kobs at 2500 uM GlcN6P” value with glucosamine-6-phosphate [5] was 0.00387 ± 0.001 s⁻¹. Also, the “self-cleavage kobs at 10000 uM GlcN6P” value with glucosamine-6-phosphate [6] came to 0.0119 ± 0.0016 s⁻¹.

U57G G62U: in the data set with glucosamine-6-phosphate [1], the turnover number (kcat) is under 1e-05 s⁻¹. In addition, the “self-cleavage kobs at 40 uM GlcN6P” value with glucosamine-6-phosphate [3] is under 1e-05 s⁻¹. Moreover, the “self-cleavage kobs at 2500 uM GlcN6P” value in the data set with glucosamine-6-phosphate [5] is under 1e-05 s⁻¹.

Take A36G C71G: in the data set with glucosamine-6-phosphate [1], the kcat amounted to 1.32e-05 ± 3.6e-06 s⁻¹. In the data set with glucosamine-6-phosphate [4], the “self-cleavage kobs at 640 uM GlcN6P” value was under 1e-05 s⁻¹.

Take A6U U45A: the catalytic constant (kcat) in the data set with glucosamine-6-phosphate [1] is 0.000657 ± 1.8e-05 s⁻¹. For the same variant, the Michaelis constant (KM) in the data set with glucosamine-6-phosphate [2] was found to be 2.49 ± 0.13 mM. In the data set with glucosamine-6-phosphate [4], the “self-cleavage kobs at 640 uM GlcN6P” value is 0.000134 ± 2e-05 s⁻¹. Also, the “self-cleavage kobs at 2500 uM GlcN6P” value with glucosamine-6-phosphate [5] came to 0.000337 ± 6.4e-05 s⁻¹. Besides, the “self-cleavage kobs at 10000 uM GlcN6P” value with glucosamine-6-phosphate [6] is 0.000523 ± 7.7e-05 s⁻¹.

Regarding U46C U69A, the kcat with glucosamine-6-phosphate [1] turned out to be 0.000242 ± 4.8e-05 s⁻¹. The KM in the data set with glucosamine-6-phosphate [2] amounted to 0.686 ± 0.31 mM. Further, in the data set with glucosamine-6-phosphate [7], the “self-cleavage kobs at 160 uM GlcN6P” value came to 5.58e-05 ± 2.2e-05 s⁻¹. Besides, in the data set with glucosamine-6-phosphate [4], the “self-cleavage kobs at 640 uM GlcN6P” value stood at 9.77e-05 ± 2.8e-05 s⁻¹. Also, the “self-cleavage kobs at 2500 uM GlcN6P” value with glucosamine-6-phosphate [5] was 0.000199 ± 6.1e-05 s⁻¹. Besides, the “self-cleavage kobs at 10000 uM GlcN6P” value with glucosamine-6-phosphate [6] was determined as 0.000243 ± 6.5e-05 s⁻¹.

On to A12U A42U, for which the turnover number (kcat) in the data set with glucosamine-6-phosphate [1] was 0.000531 ± 7.4e-05 s⁻¹. Moreover, the KM with glucosamine-6-phosphate [2] stood at 1.24 ± 0.33 mM. The “self-cleavage kobs at 160 uM GlcN6P” value with glucosamine-6-phosphate [7] is 5.09e-05 ± 7.4e-06 s⁻¹. Further, in the data set with glucosamine-6-phosphate [4], the “self-cleavage kobs at 640 uM GlcN6P” value worked out at 0.000198 ± 1.9e-05 s⁻¹. In addition, in the data set with glucosamine-6-phosphate [5], the “self-cleavage kobs at 2500 uM GlcN6P” value worked out at 0.000402 ± 3.2e-05 s⁻¹. Moreover, the “self-cleavage kobs at 10000 uM GlcN6P” value in the data set with glucosamine-6-phosphate [6] was 0.000411 ± 4.6e-05 s⁻¹.

As to U30A U57G, the turnover number (kcat) in the data set with glucosamine-6-phosphate [1] turned out to be 2.86e-05 ± 9.5e-06 s⁻¹. In addition, the “self-cleavage kobs at 2500 uM GlcN6P” value with glucosamine-6-phosphate [5] was determined as 3.99e-05 ± 1.7e-05 s⁻¹.

Regarding A12C U31C, in the data set with glucosamine-6-phosphate [1], the kcat amounted to 0.00286 ± 0.00052 s⁻¹. In addition, the KM with glucosamine-6-phosphate [2] stood at 5.11 ± 1.3 mM. Besides, the “self-cleavage kobs at 40 uM GlcN6P” value with glucosamine-6-phosphate [3] was found to be 3.7e-05 ± 1.5e-05 s⁻¹. The “self-cleavage kobs at 160 uM GlcN6P” value in the data set with glucosamine-6-phosphate [7] is 8.05e-05 ± 1.6e-05 s⁻¹. Moreover, the “self-cleavage kobs at 640 uM GlcN6P” value with glucosamine-6-phosphate [4] turned out to be 0.000348 ± 6.1e-05 s⁻¹. In the data set with glucosamine-6-phosphate [5], the “self-cleavage kobs at 2500 uM GlcN6P” value was 0.000876 ± 0.00014 s⁻¹. For the same variant, in the data set with glucosamine-6-phosphate [6], the “self-cleavage kobs at 10000 uM GlcN6P” value was 0.00195 ± 0.0003 s⁻¹.

On to A36C U55C, for which the kcat with glucosamine-6-phosphate [1] was under 1e-05 s⁻¹. In addition, in the data set with glucosamine-6-phosphate [6], the “self-cleavage kobs at 10000 uM GlcN6P” value is under 1e-05 s⁻¹.

Regarding A53G U56G, the kcat with glucosamine-6-phosphate [1] is 0.0121 ± 0.004 s⁻¹. Further, the KM with glucosamine-6-phosphate [2] was found to be 1.15 ± 0.53 mM. The “self-cleavage kobs at 40 uM GlcN6P” value with glucosamine-6-phosphate [3] came out at 0.000497 ± 5.8e-05 s⁻¹. Further, in the data set with glucosamine-6-phosphate [7], the “self-cleavage kobs at 160 uM GlcN6P” value amounted to 0.00116 ± 0.00024 s⁻¹. For the same variant, the “self-cleavage kobs at 640 uM GlcN6P” value in the data set with glucosamine-6-phosphate [4] stood at 0.00411 ± 0.00066 s⁻¹. The “self-cleavage kobs at 2500 uM GlcN6P” value with glucosamine-6-phosphate [5] came to 0.00635 ± 0.0012 s⁻¹. The “self-cleavage kobs at 10000 uM GlcN6P” value with glucosamine-6-phosphate [6] came out at 0.0161 ± 0.0025 s⁻¹.

For the variant U30C U31G, the kcat in the data set with glucosamine-6-phosphate [1] turned out to be 0.00836 ± 0.0018 s⁻¹. Further, the Michaelis constant (KM) in the data set with glucosamine-6-phosphate [2] amounted to 2.37 ± 0.69 mM. For the same variant, in the data set with glucosamine-6-phosphate [3], the “self-cleavage kobs at 40 uM GlcN6P” value came out at 0.000147 ± 1.9e-05 s⁻¹. Also, the “self-cleavage kobs at 160 uM GlcN6P” value in the data set with glucosamine-6-phosphate [7] was 0.000404 ± 0.0001 s⁻¹. Also, the “self-cleavage kobs at 640 uM GlcN6P” value in the data set with glucosamine-6-phosphate [4] was determined as 0.00249 ± 0.00044 s⁻¹. The “self-cleavage kobs at 2500 uM GlcN6P” value with glucosamine-6-phosphate [5] amounted to 0.00353 ± 0.0008 s⁻¹. Also, the “self-cleavage kobs at 10000 uM GlcN6P” value with glucosamine-6-phosphate [6] came out at 0.00701 ± 0.00093 s⁻¹.

As for U45C U65C, in the data set with glucosamine-6-phosphate [1], the catalytic constant (kcat) is 0.000282 ± 2.2e-05 s⁻¹. Also, in the data set with glucosamine-6-phosphate [2], the KM stood at 6.72 ± 0.78 mM. For the same variant, the “self-cleavage kobs at 2500 uM GlcN6P” value with glucosamine-6-phosphate [5] was determined as 7.8e-05 ± 1.7e-05 s⁻¹. The “self-cleavage kobs at 10000 uM GlcN6P” value in the data set with glucosamine-6-phosphate [6] was 0.000167 ± 4.8e-05 s⁻¹.

With A14C A33U C50U C70A, the catalytic constant (kcat) with glucosamine-6-phosphate [1] is 3.25e-05 ± 1.4e-05 s⁻¹. Besides, the “self-cleavage kobs at 640 uM GlcN6P” value with glucosamine-6-phosphate [4] turned out to be 4.2e-05 ± 1.9e-05 s⁻¹.

Consider U45A A53C, for which, in the data set with glucosamine-6-phosphate [1], the kcat was 0.0341 ± 0.0078 s⁻¹. Moreover, the KM with glucosamine-6-phosphate [2] turned out to be 3.16 ± 0.86 mM. The “self-cleavage kobs at 40 uM GlcN6P” value in the data set with glucosamine-6-phosphate [3] stood at 0.000466 ± 8.3e-05 s⁻¹. In addition, the “self-cleavage kobs at 160 uM GlcN6P” value with glucosamine-6-phosphate [7] is 0.00139 ± 0.00027 s⁻¹. Moreover, the “self-cleavage kobs at 640 uM GlcN6P” value in the data set with glucosamine-6-phosphate [4] was determined as 0.00608 ± 0.00081 s⁻¹. In addition, the “self-cleavage kobs at 2500 uM GlcN6P” value with glucosamine-6-phosphate [5] amounted to 0.017 ± 0.0047 s⁻¹. In addition, the “self-cleavage kobs at 10000 uM GlcN6P” value with glucosamine-6-phosphate [6] came out at 0.0239 ± 0.0068 s⁻¹.

Turning to A33U A52G, the turnover number (kcat) with glucosamine-6-phosphate [1] came to 3.65e-05 ± 1.3e-05 s⁻¹. In the data set with glucosamine-6-phosphate [6], the “self-cleavage kobs at 10000 uM GlcN6P” value was 1.94e-05 ± 7.9e-06 s⁻¹.

As for A33U A52U, in the data set with glucosamine-6-phosphate [1], the kcat amounted to 1.29e-05 ± 2.5e-06 s⁻¹. The KM in the data set with glucosamine-6-phosphate [2] was 8.3 ± 3.4 mM.

For the variant G43U U54C, the kcat with glucosamine-6-phosphate [1] worked out at 6.24e-05 ± 1.8e-06 s⁻¹. In addition, the Michaelis-Menten constant (KM) in the data set with glucosamine-6-phosphate [2] stood at 7.1 ± 0.41 mM. Further, the “self-cleavage kobs at 10000 uM GlcN6P” value with glucosamine-6-phosphate [6] amounted to 3.65e-05 ± 1.6e-05 s⁻¹.
